From patent US20250002921A1, “SPHERICAL NUCLEIC ACIDS FOR cGAS-STING AND STAT3 PATHWAY MODULATION FOR THE IMMUNOTHERAPEUTIC TREATMENT OF CANCER” (NORTHWESTER UNIVERSITY, priority 2021, published 2025)

Tested on: IRF
Assay: IRF reporter assay in isogenic cGAS-, STING- and IRF-deficient macrophages
Assay type: cell-based
Settings: IRF-deficient macrophages, FIG. 2D
Text: (A) ICP-MS to quantify cellular level of gold in cells treated with ISD45-SNAs. (B-D) Luciferase reporter assay to quantify IRF induction in RAW-Lucia™ macrophages (B), THP cells (C), and in WT, cGAS-, STING- and IRF-deficient RAW-Lucia™ macrophages. TFX, transfection agent. Median+/−standard deviation is shown. *p<0.05. (E) Multiplex ELISA-based and (F) antibody array-based cytokine profiling in RAW-Lucia™ macrophages.
To exploit the SNA architecture for cGAS activation, we synthesized ISD45-SNAs by conjugating 13 nm gold nanoparticles with 45 base pair (bp) dsISD oligonucleotides (ISD^45-SNAs; FIG. 1A), as 45 bp ISD oligonucleotides represent the most used and widely characterized cGAS activator^7. The terms “dsISD^45” and “ISD^45” are interchangeable as used herein. Citrate-stabilized gold nanoparticles were prepared using the Frens method^4,8,9. […] In addition, by generating melting curves, using an OliGreen fluorescence assay, and determining the zeta potential, oligonucleotide incorporation was quantified^4,8,9. […] Upon cGAS enzyme deactivation, the mixture was added to cGAS-deficient RAW-Lucia™ macrophages, carrying stable integration of an IRF-inducible Lucia luciferase reporter to quantify IRF induction luminometrically. […]

B1: ISD-45: free 45 bp interferon-stimulatory dsDNA oligonucleotide, the most used and widely characterized cGAS activator (nucleic acid)
sense: TACAGATCTACTAGTGATCTATGACTGATCTGTACATGATCTACA
antisense: ACATCTAGTACATGTCTAGTCAGTATCTAGTGATCATCAGACA
modifications: DNA, backbone and methylation of C not given here
- IRF induction in the absence of STING, cGAS or IRF: blunted
